T1: cynomolgus CD161 (cynomolgus)
T1 construct: UniProt A0A2K5WYI1; also called cynoCD161
T1 chain: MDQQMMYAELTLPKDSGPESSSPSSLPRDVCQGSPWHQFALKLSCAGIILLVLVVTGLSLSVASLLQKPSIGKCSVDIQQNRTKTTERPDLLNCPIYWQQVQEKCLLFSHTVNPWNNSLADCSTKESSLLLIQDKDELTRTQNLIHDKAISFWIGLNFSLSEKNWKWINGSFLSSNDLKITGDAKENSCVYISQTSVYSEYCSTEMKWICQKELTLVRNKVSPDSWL

T2: Human Clec5A (human, UniProt Q9NY25 1-188)
T2 construct: also called hClec5A
T2 sequence: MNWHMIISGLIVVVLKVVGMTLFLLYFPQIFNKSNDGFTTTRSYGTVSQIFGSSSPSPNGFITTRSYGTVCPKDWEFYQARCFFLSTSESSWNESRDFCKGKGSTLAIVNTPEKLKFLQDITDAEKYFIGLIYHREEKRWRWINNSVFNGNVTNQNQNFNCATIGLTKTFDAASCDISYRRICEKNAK

T3: Human Clec12B (human, UniProt Q2HXU8 1-276)
T3 construct: also called hClec12B
T3 sequence: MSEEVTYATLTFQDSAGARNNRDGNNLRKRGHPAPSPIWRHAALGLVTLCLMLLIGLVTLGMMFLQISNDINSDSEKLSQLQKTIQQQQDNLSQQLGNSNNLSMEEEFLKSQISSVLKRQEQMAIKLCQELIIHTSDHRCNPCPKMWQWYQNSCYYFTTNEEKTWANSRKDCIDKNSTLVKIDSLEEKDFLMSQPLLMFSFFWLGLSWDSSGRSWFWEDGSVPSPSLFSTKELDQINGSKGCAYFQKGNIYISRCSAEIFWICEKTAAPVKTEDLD

T4: Human KLRG1 (human, UniProt Q96E93 1-195)
T4 construct: also called hKLRG1
T4 sequence: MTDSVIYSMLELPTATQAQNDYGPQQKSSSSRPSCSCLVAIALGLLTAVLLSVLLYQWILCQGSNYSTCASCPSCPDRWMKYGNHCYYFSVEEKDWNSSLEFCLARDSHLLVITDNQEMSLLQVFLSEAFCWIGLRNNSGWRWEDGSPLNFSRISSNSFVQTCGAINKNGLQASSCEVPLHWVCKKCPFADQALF

T5: Human CD209 (human, UniProt Q9NNX6 1-404)
T5 construct: also called hCD209
T5 sequence: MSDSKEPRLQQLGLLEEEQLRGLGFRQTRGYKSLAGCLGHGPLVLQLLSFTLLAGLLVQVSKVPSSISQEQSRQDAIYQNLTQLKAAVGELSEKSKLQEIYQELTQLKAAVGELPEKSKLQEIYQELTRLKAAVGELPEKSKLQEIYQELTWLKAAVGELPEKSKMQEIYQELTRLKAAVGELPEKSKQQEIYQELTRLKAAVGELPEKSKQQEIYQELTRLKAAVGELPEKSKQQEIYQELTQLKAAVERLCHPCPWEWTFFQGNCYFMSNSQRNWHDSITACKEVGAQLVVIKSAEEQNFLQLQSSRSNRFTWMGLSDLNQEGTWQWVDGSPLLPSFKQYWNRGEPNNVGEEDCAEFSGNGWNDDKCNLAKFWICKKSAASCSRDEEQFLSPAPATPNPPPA

T6: Human KLRF1 (human, UniProt Q9NZS2 1-231)
T6 construct: also called hKLRF1
T6 sequence: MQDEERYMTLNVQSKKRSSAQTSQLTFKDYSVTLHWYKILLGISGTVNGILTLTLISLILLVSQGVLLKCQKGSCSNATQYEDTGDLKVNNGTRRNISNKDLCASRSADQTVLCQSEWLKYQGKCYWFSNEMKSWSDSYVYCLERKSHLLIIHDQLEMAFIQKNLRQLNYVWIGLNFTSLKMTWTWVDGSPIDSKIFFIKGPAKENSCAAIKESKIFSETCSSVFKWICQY

T7: Human KLRF2 (human, UniProt D3W0D1 1-207)
T7 construct: also called hKLRF2
T7 sequence: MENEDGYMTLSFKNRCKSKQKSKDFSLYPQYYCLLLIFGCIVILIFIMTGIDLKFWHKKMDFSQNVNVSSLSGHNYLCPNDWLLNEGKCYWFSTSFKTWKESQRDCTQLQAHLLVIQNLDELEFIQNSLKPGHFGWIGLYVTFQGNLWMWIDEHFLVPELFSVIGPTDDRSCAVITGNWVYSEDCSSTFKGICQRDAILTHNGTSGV

T8: Human Clec10A (human, UniProt Q8IUN9 1-316)
T8 construct: also called hClec10A
T8 sequence: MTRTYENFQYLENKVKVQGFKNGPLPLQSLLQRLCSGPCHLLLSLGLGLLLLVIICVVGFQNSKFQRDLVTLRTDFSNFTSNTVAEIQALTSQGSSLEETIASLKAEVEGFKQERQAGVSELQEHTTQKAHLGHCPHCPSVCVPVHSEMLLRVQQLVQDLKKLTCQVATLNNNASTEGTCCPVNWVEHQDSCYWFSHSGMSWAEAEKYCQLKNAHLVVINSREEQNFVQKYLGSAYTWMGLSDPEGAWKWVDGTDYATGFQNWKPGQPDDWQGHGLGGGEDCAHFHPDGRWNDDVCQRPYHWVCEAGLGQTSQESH


Columns and labels:
Assay in all cases: flow, Jurkat, 100 nM Ab
cynomolgus CD161 = biological target: T1, cynomolgus CD161
Human Clec5A = biological target: T2, Human Clec5A
Human Clec12B = biological target: T3, Human Clec12B
Human KLRG1 = biological target: T4, Human KLRG1
Human CD209 = biological target: T5, Human CD209
Human OLR1 = biological target: T9, Human OLR1 (human, UniProt P78380 1-273)
T9 construct: also called hOLR1

Human KLRF1 = biological target: T6, Human KLRF1
human CD161 = biological target: T10, human CD161 (human, UniProt Q12918 1-225)
T10 construct: UniProt Q12918; also called hCD161; KLRB1

Human KLRF2 = biological target: T7, Human KLRF2
Human Clec10A = biological target: T8, Human Clec10A
Human Clec9A = biological target: T11, Human Clec9A (human, UniProt Q6UXN8 1-241)
T11 construct: also called hClec9A
T11 sequence (Q6UXN8 whole entry): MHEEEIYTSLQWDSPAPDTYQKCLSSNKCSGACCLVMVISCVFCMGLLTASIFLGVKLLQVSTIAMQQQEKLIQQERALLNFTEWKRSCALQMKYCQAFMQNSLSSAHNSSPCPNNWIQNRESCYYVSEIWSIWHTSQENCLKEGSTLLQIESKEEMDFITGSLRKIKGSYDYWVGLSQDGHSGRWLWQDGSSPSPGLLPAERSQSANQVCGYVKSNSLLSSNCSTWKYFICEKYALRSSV

| Binder | MFI normalized to WT (cynomolgus CD161) | MFI normalized to WT (Human Clec5A) | MFI normalized to WT (Human Clec12B) | MFI normalized to WT (Human KLRG1) | MFI normalized to WT (Human CD209) | MFI normalized to WT (Human OLR1) | MFI normalized to WT (Human KLRF1) | MFI normalized to WT (human CD161) | MFI normalized to WT (Human KLRF2) | MFI normalized to WT (Human Clec10A) | MFI normalized to WT (Human Clec9A) |
| --- | --- | --- | --- | --- | --- | --- | --- | --- | --- | --- | --- |
| KM12.2.3 (antibody, human IgG1, V domains shown) VH: EVQLVESGGGLVQPGGSLRLSCAASGFTFSSYAMSWIRQAPGKGLEWVSAISGSGGSIYYADSVKGRFTISRDNSKNTLYLQMNSLRAEDTAVYYCARGYSDSYFYGPYYTFDYWGQGTLVTVSS VL: DIQMTQSPSSLSASVGDRVTITCRASQGISSYLNWYQQKPGKAPKLLIYAASSLQSGVSSRFSGSGSGTDFTLTISSLQPEDFATYYCQQSYNTPLTFGQGTKVEIK | 11.9 | 1.41 | 1.33 | 1.42 | 1.48 | 1.33 | 1.18 | 122 | 1.37 | 1.44 | 1.42 |
| KW7.3.7 (antibody, V domains shown) VH: EVQLVESGGGLVQPGGSLRLSCAASGFTFSSYAMSWVRQAPGKGLEWVSATSGSGGSTYYADSAKGRFTISRDNSKNTLYLQMNSLRAEDTAVYYCARGGYLPDAFDYWGRGTLVTVSS VL: DIQMTQSPSSLSASVGDRVTITCWASQSISSYLNWYQQEPGKAPKLLIYAASSLQSGVPSRFSGSGSGTDFTLTISSLQPEDFATYYCQQTYSTPLTFGQGTKVEIK | – | 1.08 | 1.05 | 1.06 | 0.85 | 1.15 | 1.19 | – | 1.03 | 0.89 | 1.01 |
| KW1.3.12 (antibody, human IgG1, V domains shown) VH: EVQLVESGGGLVQPGGSLRLSCAASGFTFSSYAMSWVRQAPGKGLEWVSTISGSGGSTYYADSVKGRFTISRDNSRNTLYLQMNSLRAEDTAVYYCARGGLIPSGFDYWGQGTLVTVSS VL: DIQMTQSPSSLSASVGDRVTITCRASQSISSYLNWYQQKPGKAPKLLIYAASSLLSGVPSRFSGSGSGTDFTLTISSLQPEDFATYYCQQTYSAPLTFGQGTKVEIK | 117 | 1.19 | 1.1 | 1.25 | 0.91 | 1.24 | 1.02 | 163 | 1.08 | 0.9 | 1.11 |
| KW17.3.4 (antibody, V domains shown) VH: not shown VL: QSVLTQPPSVSGAPGQRVTISCTGSSSNIGAGYDVHWYQQLPGTAPKLLIYGNSNRPSGVPDRFSGSQSGTSASLAITGLQAEDEADYYCQSYNSGHTVFGGGTQLTVL | 1.03 | 1.12 | 1.09 | 1.08 | 0.94 | 1.03 | 0.91 | 143 | 1.03 | 0.98 | 1.13 |

Results, then the binder that gave them:

| MFI normalized to WT (cynomolgus CD161) | MFI normalized to WT (Human Clec5A) | MFI normalized to WT (Human Clec12B) | MFI normalized to WT (Human KLRG1) | MFI normalized to WT (Human CD209) | MFI normalized to WT (Human OLR1) | MFI normalized to WT (Human KLRF1) | MFI normalized to WT (human CD161) | MFI normalized to WT (Human KLRF2) | MFI normalized to WT (Human Clec10A) | MFI normalized to WT (Human Clec9A) | Binder |
| --- | --- | --- | --- | --- | --- | --- | --- | --- | --- | --- | --- |
| 103 | 1.13 | 1.11 | 1.24 | 0.96 | 1.28 | 1.14 | 172 | 1.05 | 0.94 | 1.24 | KW1.2.1 (antibody, V domains shown) VH: EVQLVESGGGLVQPGGSLRLSCAASGSTFSSYAMSWVRQAPGKGLEWVSTISGSGGSTYYADSVKGRFTISRDNSRNTLYLQMNSLRAEDTAVYYCARGGLIPSGFDYWGQGTLVTVSS VL: DIQMTQSPSSPSASVGDRVTITCRASQSISSYLNWYQQKPGKAPKLLIYAASSLLSGVPSRFSGSGSGTDFTLTISSLQPEDFATYYCQQTYSTPLTFGQGTKVEIK |
| 0.89 | 0.93 | 0.94 | 0.93 | 0.81 | 0.9 | 0.8 | 150 | 0.9 | 0.86 | 0.94 | KW9.3.3 (antibody, V domains shown) VH: EVQLVESGGGLVQPGGSLRLSCAASGFTFSSYAMSWVRQAPGKGLEWVSAISGSGGRTYYADSVKGRFTISRDNSKNTLYLQMNSLRAEDTAMYYCARGPGYMYLYGDSFFEYWGQGTLVTVSS VL: DIQMAQSPSSLSASVGDRVTITCRASQGISSYLNWYQQKPGKAPKLLIYAASSLQSGVPSRFSGSGYGTDFTLTISSLQPEDFATYYCQQSYSTPLTFGQGTKVEIK |
| 116 | 1.31 | 1.12 | 1.25 | 0.97 | 1.3 | 1.14 | 166 | 1.13 | 1.01 | 1.17 | KM12.4.7 (antibody, V domains shown) VH: EVQLVESGGGLVQPGGSLRLPCAASGFTFSSYAMSWIRQAPGKGLEWVSAISGSGGSIYYADSVKGRFTISRDNSKNTLYLQMDSLRAEDTAVYYCARGYSDSYFYGPYYTFDYWGQGTLVTVSS VL: not shown |
| 108 | 1.24 | 1.37 | 1.3 | 1 | 1.42 | 1.18 | 145 | 1.12 | 0.9 | 1.42 | KW7.2.2 (antibody, V domains shown) VH: not shown VL: DIQMTQSPSSLSASVGDRVTITCRASQSISSYLNWYQQKPGKAPRFLIYAASSLQSGVPSRFSGSGSGTDFTLTISSLQPEDFATYYCQQTYSTPLTFGQGTKVEIK |

From patent publication US20210122826A1 (MIT, published 2021)
